Target: recombinant manganese superoxide dismutase (MnSOD) from Lactococcus lactis M4 (Lactococcus lactis M4) (UniProt P0A4J2)
Test: SEC; Superose 12 HR 16/70 packed column, 20 mM phosphate buffer, 0.15 M NaCl, pH 7.0, 0.75 mL/min; calibrated with aprotinin, cytochrome c, carbonic anhydrase and BSA; estimated mass 63 kDa against 55.4 kDa theoretical for a dimer

stoichiometry N: 2
Substance: recombinant manganese superoxide dismutase (MnSOD) from Lactococcus lactis M4 (from UniProt P0A4J2 1-206) (enzyme)
